Assays:
[1] = target: recombinant His-tagged human FcγRIa (human) (UniProt P12314); test: SPR (Biacore), His-tagged FcγRIa captured on anti-His chip, antibody in solution, resonance units against antibody concentration
[2] = target: recombinant His-tagged human FcγRIIIa (176-Val [V]) (human) (UniProt P08637); test: SPR (Biacore), His-tagged FcγRIIIa-V captured on anti-His chip, antibody in solution, resonance units against antibody concentration
Sequence of recombinant His-tagged human FcγRIIIa (176-Val [V]) (human) (P08637 17-208 F176V limits assumed): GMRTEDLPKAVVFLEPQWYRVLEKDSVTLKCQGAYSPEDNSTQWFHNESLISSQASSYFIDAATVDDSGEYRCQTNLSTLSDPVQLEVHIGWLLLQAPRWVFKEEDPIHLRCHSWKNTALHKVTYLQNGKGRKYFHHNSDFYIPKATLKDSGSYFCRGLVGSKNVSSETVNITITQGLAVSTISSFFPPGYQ

Sequence of recombinant His-tagged human FcγRIa (human) (P12314 16-288 limits assumed): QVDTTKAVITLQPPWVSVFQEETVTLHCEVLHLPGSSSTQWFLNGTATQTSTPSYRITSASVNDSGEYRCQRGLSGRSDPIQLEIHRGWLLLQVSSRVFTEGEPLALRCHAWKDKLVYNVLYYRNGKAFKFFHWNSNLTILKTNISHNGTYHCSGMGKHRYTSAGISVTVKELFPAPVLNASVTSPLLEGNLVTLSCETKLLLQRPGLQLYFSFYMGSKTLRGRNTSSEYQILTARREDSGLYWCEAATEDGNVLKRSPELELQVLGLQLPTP

- EC50 (read off the curve) [1]: 60 nM
- EC50 (read off the curve) [2]: 400 nM
Substance: IgG1-b12 (anti-HIV gp120 antibody, wild-type IgG1 Fc)

Source: US20250289899A1
